According to US20190218304A1, “POTENTIATING THE EFFECT OF ATP RELEASE” (INNATE PHARMA, priority 2017, published 2019):
“Also recorded” adds a separate entry of the source.

Legend:
[1] = molecular target: T1, human CD39-expressing CHO cells (Homo sapiens, UniProt P49961); test: Inhibition of the enzymatic activity of cellular CD39, CHO-huCD39 cells; assay type: cell-based; settings: result in words
T1 construct: expressed in transfected cells; host or cells: CHO cells
T1 sequence (P49961 1-510): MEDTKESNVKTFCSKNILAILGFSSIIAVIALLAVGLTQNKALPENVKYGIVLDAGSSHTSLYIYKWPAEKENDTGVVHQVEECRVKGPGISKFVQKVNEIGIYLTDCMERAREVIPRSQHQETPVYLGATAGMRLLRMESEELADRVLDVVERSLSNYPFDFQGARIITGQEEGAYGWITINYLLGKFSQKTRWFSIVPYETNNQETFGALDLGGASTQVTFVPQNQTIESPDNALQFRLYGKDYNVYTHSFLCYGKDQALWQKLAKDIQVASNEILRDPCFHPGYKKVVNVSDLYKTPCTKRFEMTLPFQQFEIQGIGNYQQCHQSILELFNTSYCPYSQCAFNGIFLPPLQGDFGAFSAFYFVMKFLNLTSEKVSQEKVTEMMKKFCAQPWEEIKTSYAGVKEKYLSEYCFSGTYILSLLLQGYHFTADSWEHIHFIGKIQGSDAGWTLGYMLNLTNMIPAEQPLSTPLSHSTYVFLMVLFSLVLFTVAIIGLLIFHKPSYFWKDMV
Protocol: (§1) The inhibition of the CD39 enzymatic activity in CD39-expressing cells by antibodies was evaluated using Cell Titer Glo™ (Promega, reference G7571) that allows assessment of ATP hydrolysis through use of a reagent that generates a luminescent signal proportional to the amount of ATP present. The assay was thus designed to permit assessment of the inhibition of ATP hydrolyzed by CD39 in the cell culture supernatant. Briefly, 5×10^4 Ramos human lymphoma cells, 5×10^3 human CD39-, cynomolgus CD39- and mouse CD39-expressing CHO cells, were incubated 1 hour at 37° C. with anti-CD39 antibodies from 30 μg/ml to 5×10^−4 μg/ml. Cells were then incubated with 20 μM ATP for 1 additional hour at 37° C. Plates were centrifuged for 2 min at 400 g and 50 μl cell supernatant are transferred in a luminescence microplate (white wells). 50 μl CellTiter-Glo® Reagent (CTG) was added to the supernatant and emitted light was quantified after a 5 min incubation in the dark using a Enspire™ luminometer. Anti-CD39 antibody efficacy was determined by comparing emitted light in presence of antibody with ATP alone (maximal light emission) and ATP together with cells (minimal light emission).

cell-membrane bound CD39 = molecular target: T2, cell-membrane bound CD39 (Homo sapiens, UniProt P49961); test: Inhibition of the enzymatic activity of cellular CD39 (cells not specified); assay type: cell-based
T2 sequence (P49961 1-510): T1 sequence (P49961 1-510)
Protocol: as §1, with “emission). […]” for “emission).”

[2] = molecular target: T3, CHO cells expressing human CD39 (Homo sapiens, UniProt P49961); test: Antibody titration by flow cytometry on CHO-huCD39; assay type: binding
T3 construct: expressed in transfected cells; host or cells: CHO cells
T3 sequence (P49961 1-510): T1 sequence (P49961 1-510)
Protocol: Cells were incubated with various concentration of unlabeled anti-CD39 antibody from 30 μg/ml to 5×10^−4 μg/ml, for 30 minutes at 4° C. After washes, cells were incubated with Goat anti-mouse H+L labeled secondary antibody for 30 min at 4° C.

human CD39 = molecular target: T4, human CD39 (Homo sapiens, UniProt P49961); test: ELISA titration on human CD39; assay type: binding; settings: coated recombinant protein, OD=450
T4 sequence (P49961 1-510): T1 sequence (P49961 1-510)
Protocol: (§2) Wells were washed in TBS Tween 20, and further saturated 2H at RT in TBS Blocking buffer. Dose range concentration of primary antibody was incubated in TBS blocking buffer for 2 h at RT. Wells were washed in TBS Tween 20. […] Optical density was measured on Enspire™ at OD=450.

[3] = molecular target: T5, Human CD39-L3, also known as NTPDase3 or ENTPD3 (Homo sapiens, UniProt O75355); test: ELISA titration on CD39-L3; assay type: binding; settings: coated recombinant protein, OD=450
T5 sequence (O75355 1-529): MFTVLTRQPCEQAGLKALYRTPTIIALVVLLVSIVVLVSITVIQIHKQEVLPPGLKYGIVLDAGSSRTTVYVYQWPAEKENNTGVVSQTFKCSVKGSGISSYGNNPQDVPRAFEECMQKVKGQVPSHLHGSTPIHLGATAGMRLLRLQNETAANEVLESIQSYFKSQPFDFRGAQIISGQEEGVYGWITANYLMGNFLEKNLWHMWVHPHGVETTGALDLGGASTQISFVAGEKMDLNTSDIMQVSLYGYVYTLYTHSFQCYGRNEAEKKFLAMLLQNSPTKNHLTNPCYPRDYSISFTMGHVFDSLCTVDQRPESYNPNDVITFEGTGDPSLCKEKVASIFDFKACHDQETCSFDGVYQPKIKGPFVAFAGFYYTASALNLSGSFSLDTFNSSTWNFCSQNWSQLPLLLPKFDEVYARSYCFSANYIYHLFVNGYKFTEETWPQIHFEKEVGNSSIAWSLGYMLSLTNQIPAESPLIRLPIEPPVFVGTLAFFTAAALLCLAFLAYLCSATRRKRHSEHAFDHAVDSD
Protocol: as §2

[4] = test system: monocyte-derived DC (moDC); test: Activation of monocyte-derived dendritic cells in presence of ATP; assay type: cell-based, human; settings: ATP at 0.125 mM, 0.25 mM or 0.5 mM, 24 hours; I-394 shown at 10 μg/ml
Protocol: While ATP has pro-inflammatory activity, CD39-mediated catabolism of ATP is believed to be able to impair dendritic cell (DC) activation, in turn altering a broader adaptive immune response against tumor antigen. In order to evaluate whether CD39 blockade using anti-CD39 antibodies could overcome CD39-mediated alteration of dendritic cell (DC) activation in the presence of ATP, we incubated monocyte-derived DC (moDC) with anti-CD39 antibodies in the presence of ATP.
Briefly, human monocytes were purified from human healthy blood and differentiated into MoDC in presence of GM-CSF and IL-4 during 6 days. […] LPS (Invivogen, 10 ng/ml) was used as positive control. To assess resulting effect of ATP-mediated DC activation on CD4 T cells activation, ATP-activated DC were washed and then incubated with allogenic CD4 T cells (ratio 1 MoDC/4 T cells) for a mixed lymphocytes reaction (MLR) during 5 days. T cells activation and proliferation were analyzed through CD25 expression and Cell Trace Violet dilution by flow cytometry (FIG. 8).

B1: I-394: anti-CD39 antibody, VH SEQ ID NO: 3, VL SEQ ID NO: 4; heavy and light chains SEQ ID NOS: 37 and 38 (antibody)
heavy: EVQLQQSGPELVKPGASVKMSCKASGYTFTDYNMHWVKQSHGRTLEWIGYIVPLNGGSTFNQKFKGRATLTVNTSSRTAYMELRSLTSEDSAAYYCARGGTRFAYWGQGTLVTVSAASTKGPSVFPLAPSSKSTSGGTAALGCLVKDYFPEPVTVSWNSGALTSGVHTFPAVLQSSGLYSLSSVVTVPSSSLGTQTYICNVNHKPSNTKVDKRVEPKSCDKTHTCPPCPAPEAEGAPSVFLFPPKPKDTLMISRTPEVTCVVVDVSHEDPEVKFNWYVDGVEVHNAKTKPREEQYNSTYRVVSVLTVLHQDWLNGKEYKCKVSNKALPSSIEKTISKAKGQPREPQVYTLPPSREEMTKNQVSLTCLVKGFYPSDIAVEWESNGQPENNYKTTPPVLDSDGSFFLYSKLTVDKSRWQQGNVFSCSVMHEALHNHYTQKSLSLSPGK
light: DIVLTQSPASLAVSLGQRATISCRASESVDNFGVSFMYWFQQKPGQPPNLLIYGASNQGSGVPARFRGSGSGTDFSLNIHPMEADDTAMYFCQQTKEVPYTFGGGTKLEIKRTVAAPSVFIFPPSDEQLKSGTASVVCLLNNFYPREAKVQWKVDNALQSGNSQESVTEQDSKDSTYSLSSTLTLSKADYEKHKVYACEVTHQGLSSPVTKSFNRGEC
modifications: Chimeric homo sapiens mus musculus
In the case of B1, the “blocking CD39 enzymatic activity in cells expressing human CD39 (CHO-huCD39)” value [1] is reported as “blocks CD39 enzymatic activity; also recorded: highly potent at blocking CD39 enzymatic activity”, the “potency and maximal inhibition of cellular CD39, comparison between antibodies (FIG. 2A)” value (cell-membrane bound CD39; compared with BY40) is reported as “greater potency and maximal inhibition of cellular CD39 compared to BY40; also recorded: greater potency at all concentrations as well as greater maximal inhibition of cellular CD39 compared to BY40” and the “inhibition of cell-membrane bound (cellular) CD39 ATPase activity” value (cell-membrane bound CD39; result in words) is reported as “inhibit cell-membrane bound CD39”. The “binding to cells expressing human CD39 (CHO-huCD39)” value [2] was “bound; also recorded: binds”, the “binding to human CD39 in ELISA” value (human CD39) was “bound; also recorded: binds to human CD39” and the “binding to CD39-L3 in ELISA” value [3] was “not to any of the human isoforms”. For the same molecule, the “moDC activation as assessed by HLA-DR or CD83 expression” value [4] was “permitted moDC activation; also recorded: lead to moDC activation”.
